This note sets out measurements from PMC4150798 (Nucleic Acids Research, 2014).

In data set [1] the target is CPEB4 RRM1–RRM2 (463–665) (human) (UniProt Q17RY0). Kind of data set: semi-native SDS PAGE.
The target is the same in data set [2]. Kind of data set: native MS.
The data set “semi-native SDS PAGE” concerns the molecule itself. The experiment in a line: semi-native SDS PAGE.

The stoichiometry N is a count of units in the complex or per binding partner. On to “CPEB4 RRM1–RRM2 (463–665) (from UniProt Q17RY0 463-665) (domain or fragment)”, for which, in data set [1], the maximum dimeric population is less than 10% and the stoichiometry N stood at 2. Also, in data set [2], the stoichiometry N is 2.

B1: CPEB4 RRM1 (463–573) (domain or fragment, human, UniProt Q17RY0 463-573, looked up)
chain: NGERVERYSRKVFVGGLPPDIDEDEITASFRRFGPLIVDWPHKAESKSYFPPKGYAFLLFQDESSVQALIDACIEEDGKLYLCVSSPTIKDKPVQIRPWNLSDSDFVMDGS
As to B1, in the data set “semi-native SDS PAGE”, the “stoichiometry N” value was 2.
